In US20250109201A1:

Key:
[1] = molecular target: ECD-His tagged human ILT2 haplotype PE01 (human) (UniProt Q8NHL6); assay: SPR, LILRA and LILRB family panel
[2] = molecular target: recombinant human LILRA1/LIR-6 (Sino Biological 17220-H08H-100) (human) (UniProt O75019); assay: SPR, LILRA and LILRB family panel
[3] = molecular target: recombinant human LILRA3/ILT6 (Sino Biological 13549-H08H-100) (human) (UniProt Q8N6C8); assay: SPR, LILRA and LILRB family panel
[4] = molecular target: complement component C1q (Sigma/C1740-1 mg) (human) (UniProt P02745); assay: ELISA, antibody coated, C1q in solution, OD 450 nm
complement component C1q (Sigma/C1740-1 mg) (human), sequence (P02745 23-245 limits assumed, chain 1 of 3): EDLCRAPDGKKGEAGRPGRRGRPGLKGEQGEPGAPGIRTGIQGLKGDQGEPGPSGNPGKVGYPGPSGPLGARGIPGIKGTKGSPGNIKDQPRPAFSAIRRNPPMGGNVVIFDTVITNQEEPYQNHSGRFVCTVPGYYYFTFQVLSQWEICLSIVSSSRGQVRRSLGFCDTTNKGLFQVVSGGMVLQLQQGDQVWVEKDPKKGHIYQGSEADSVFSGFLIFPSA
complement component C1q (Sigma/C1740-1 mg) (human), sequence (P02746 28-253 limits assumed, chain 2 of 3, further chain): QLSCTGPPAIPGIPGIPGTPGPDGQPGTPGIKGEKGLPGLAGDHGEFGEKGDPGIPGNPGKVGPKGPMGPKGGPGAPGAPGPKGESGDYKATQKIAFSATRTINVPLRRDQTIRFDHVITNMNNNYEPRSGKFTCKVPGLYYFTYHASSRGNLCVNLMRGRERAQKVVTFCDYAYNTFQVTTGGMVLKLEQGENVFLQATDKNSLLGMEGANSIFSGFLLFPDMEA
complement component C1q (Sigma/C1740-1 mg) (human), sequence (P02747 29-245 limits assumed, chain 3 of 3, further chain): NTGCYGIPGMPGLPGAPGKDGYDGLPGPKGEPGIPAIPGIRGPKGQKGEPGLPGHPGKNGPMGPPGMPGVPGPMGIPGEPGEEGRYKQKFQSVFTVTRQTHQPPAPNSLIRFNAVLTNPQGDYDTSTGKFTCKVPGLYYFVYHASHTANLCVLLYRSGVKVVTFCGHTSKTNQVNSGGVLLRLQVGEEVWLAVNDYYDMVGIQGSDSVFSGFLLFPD

[5] = molecular target: human ILT2 extracellular and transmembrane domains expressed on CHO cells (human) (UniProt Q8NHL6); assay: flow cytometry, CHO cells with low human ILT2
human ILT2 extracellular and transmembrane domains expressed on CHO cells (human), sequence (Q8NHL6 24-482 limits assumed): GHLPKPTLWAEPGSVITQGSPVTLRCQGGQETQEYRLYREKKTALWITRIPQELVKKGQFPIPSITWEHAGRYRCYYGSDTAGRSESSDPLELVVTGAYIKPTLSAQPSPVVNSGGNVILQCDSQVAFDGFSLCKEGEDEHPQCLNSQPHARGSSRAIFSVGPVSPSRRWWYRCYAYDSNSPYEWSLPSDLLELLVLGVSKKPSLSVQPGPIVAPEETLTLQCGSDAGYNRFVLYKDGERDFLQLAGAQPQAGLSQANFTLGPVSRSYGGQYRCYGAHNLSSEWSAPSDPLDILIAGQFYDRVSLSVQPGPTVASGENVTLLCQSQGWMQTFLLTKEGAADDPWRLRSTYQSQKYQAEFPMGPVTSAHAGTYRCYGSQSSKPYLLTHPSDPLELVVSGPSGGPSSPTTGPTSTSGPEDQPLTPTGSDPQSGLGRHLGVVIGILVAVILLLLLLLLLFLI

[6] = molecular target: human ILT2 extracellular and transmembrane domains expressed on CHO cells (human) (UniProt Q8NHL6); assay: flow cytometry, CHO cells with high human ILT2
[7] = molecular target: full-length ILT2 expressed on Jurkat cells (human) (UniProt Q8NHL6); assay: cell-based or functional assay
full-length ILT2 expressed on Jurkat cells (human), sequence (Q8NHL6 24-650): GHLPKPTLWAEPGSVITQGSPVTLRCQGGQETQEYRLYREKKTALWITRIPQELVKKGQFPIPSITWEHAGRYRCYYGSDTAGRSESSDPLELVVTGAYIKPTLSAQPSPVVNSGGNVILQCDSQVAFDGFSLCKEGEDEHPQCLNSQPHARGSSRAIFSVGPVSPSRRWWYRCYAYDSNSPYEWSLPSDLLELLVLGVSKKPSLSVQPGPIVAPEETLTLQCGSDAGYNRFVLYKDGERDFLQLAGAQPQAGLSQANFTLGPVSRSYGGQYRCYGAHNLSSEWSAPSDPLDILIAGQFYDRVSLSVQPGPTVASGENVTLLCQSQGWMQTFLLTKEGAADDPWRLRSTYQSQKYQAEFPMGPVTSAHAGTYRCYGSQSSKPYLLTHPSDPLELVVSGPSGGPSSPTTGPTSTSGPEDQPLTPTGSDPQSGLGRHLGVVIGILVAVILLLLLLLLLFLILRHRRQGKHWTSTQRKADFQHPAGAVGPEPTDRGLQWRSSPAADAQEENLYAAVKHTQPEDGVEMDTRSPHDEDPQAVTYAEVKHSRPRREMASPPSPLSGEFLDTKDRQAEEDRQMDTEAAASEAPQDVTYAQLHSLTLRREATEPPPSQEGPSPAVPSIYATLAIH

[8] = molecular target: human ILT2 extracellular and transmembrane domains expressed on CHO cells (human) (UniProt Q8NHL6); assay: flow cytometry, blocking of HLA-G-Fc-PE on CHO cells with high human ILT2
[9] = molecular target: complement component C1q (Sigma/C1740-1 mg) (human) (UniProt P02745); assay: ELISA, antibody coated in a dilution series, C1q added at 2 µg/mL, biotinylated anti-C1q and streptavidin-HRP

recombinant human LILRA3/ILT6 (Sino Biological 13549-H08H-100) (human), sequence (Q8N6C8 24-439 limits assumed): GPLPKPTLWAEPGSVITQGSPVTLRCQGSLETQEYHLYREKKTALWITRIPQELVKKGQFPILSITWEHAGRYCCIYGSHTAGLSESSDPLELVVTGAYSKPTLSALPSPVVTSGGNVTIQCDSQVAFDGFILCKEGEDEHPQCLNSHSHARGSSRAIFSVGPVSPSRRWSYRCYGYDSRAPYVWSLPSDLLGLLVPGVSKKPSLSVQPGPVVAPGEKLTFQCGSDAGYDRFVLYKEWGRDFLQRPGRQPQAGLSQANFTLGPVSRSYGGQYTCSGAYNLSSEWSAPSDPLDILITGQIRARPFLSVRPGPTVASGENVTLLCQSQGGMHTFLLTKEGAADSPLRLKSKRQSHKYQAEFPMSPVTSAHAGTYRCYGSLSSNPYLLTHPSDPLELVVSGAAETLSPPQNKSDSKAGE
ECD-His tagged human ILT2 haplotype PE01 (human), sequence (Q8NHL6 24-458): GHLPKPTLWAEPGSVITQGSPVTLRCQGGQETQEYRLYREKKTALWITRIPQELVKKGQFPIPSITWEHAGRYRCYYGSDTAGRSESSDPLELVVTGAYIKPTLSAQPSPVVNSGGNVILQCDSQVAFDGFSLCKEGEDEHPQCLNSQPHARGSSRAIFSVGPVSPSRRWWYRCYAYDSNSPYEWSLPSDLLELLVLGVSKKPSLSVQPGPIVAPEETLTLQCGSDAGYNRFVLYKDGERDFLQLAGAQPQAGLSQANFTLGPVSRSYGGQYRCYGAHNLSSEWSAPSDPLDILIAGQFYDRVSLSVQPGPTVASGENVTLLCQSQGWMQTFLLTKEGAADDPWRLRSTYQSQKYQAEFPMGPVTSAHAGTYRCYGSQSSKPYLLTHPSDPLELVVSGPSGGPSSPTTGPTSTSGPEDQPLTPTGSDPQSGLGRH
recombinant human LILRA1/LIR-6 (Sino Biological 17220-H08H-100) (human), sequence (O75019 17-461 limits assumed): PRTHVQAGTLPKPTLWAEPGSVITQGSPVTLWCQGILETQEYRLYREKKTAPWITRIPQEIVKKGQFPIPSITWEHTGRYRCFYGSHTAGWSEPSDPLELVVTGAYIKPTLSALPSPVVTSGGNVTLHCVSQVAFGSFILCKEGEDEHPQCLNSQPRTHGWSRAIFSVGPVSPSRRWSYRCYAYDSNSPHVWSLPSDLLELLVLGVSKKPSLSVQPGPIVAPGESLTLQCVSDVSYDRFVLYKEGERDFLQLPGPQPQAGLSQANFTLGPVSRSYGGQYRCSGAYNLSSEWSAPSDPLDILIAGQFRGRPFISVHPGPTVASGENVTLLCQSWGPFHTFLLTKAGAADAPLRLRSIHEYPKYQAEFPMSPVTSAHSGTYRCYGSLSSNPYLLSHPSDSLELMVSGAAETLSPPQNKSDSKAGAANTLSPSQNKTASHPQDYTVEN

| Kd [1] | Kd [2] | Kd [3] | Substance | other results |
| --- | --- | --- | --- | --- |
| 0.15 nM | 32 nM | 6 nM | VMP55 (Novus, #NBP2-50475PE) (antibody) | – |
| 2.4 nM | 260 nM | 100 nM | 292305 (R&D Systems, #MAB20171) (antibody) | – |
| – | – | – | nivolumab (Evidentric GmbH), an anti-PD-1 IgG4 antibody | Average AUC [4]: 0.52 |
| 0.24 nM | 0.81 nM | < 0.1 nM | 238145 (Abcam, #EPR22861-6) (antibody) | – |
| – | – | – | isotype control (VRC01 IgG4) (antibody) | AUC [5]: 542; AUC [6]: 570 |
| 1.7 nM | 5 nM | 13 nM | 1Q-G2 (Creative, #DCABH-4494) (antibody) | – |
| 3.6 nM | 7.2 nM | 15 nM | HP-F1 (Invitrogen, #16-5129-82) (antibody) | FcγRIIIa-NFAT luciferase signaling, Average AUC normalized to HP-F1 [7]: 100; FcγRIIIa-NFAT luciferase signaling, EC50 [7]: 32.8 µg/mL; IC50 [8]: 0.307 µg/mL |
| 0.89 nM | 40 nM | 26 nM | 4F9 (Biorad, #MCA2515F) (antibody) | – |
| – | – | – | IgG4 isotype control (CrownBio/C00045-5) (antibody) | Average AUC [4]: 0.5 |
| – | – | – | adalimumab (Myonex), an anti-TNFα IgG1 antibody | EC50 (read off the curve) [9]: 3 µg/mL |
